The source of these data is patent publication US20240076371A1, “COMPOSITIONS AND METHODS FOR TREATING OSTEOARTHRITIS, RHEUMATOID ARTHRITIS, AND JOINT AND TENDON DISORDERS” (BOARD OF REGENTS, THE UNIVERSITY OF TEXAS SYSTEM, priority 2021, published 2024).

Test [1] has as its target T1, Cx43 hemichannels in human synovial fibroblast SW982 cells (Homo sapiens, UniProt P17302).
T1 construct: endogenous in cells; host or cells: SW982 (human synovial fibroblast), IL1β-treated
The experiment in a line: EtBr dye uptake assay in IL1β-treated SW982 cells. The format is cell-based. How it is done: (§1) Dye uptake assay. Cells were incubated with a mixture of 0.1 mM ethidium bromide (EtBr, MW 394 Da) and 1 mg/ml FITC-dextran (MW 10 kDa) for 5 minutes. EtBr was used as a tracer to detect hemichannel activity, and FITC-dextran, which is too large to pass through hemichannels but is taken up by dying cells, was used as a negative control. Cells were then rinsed five times with PBS, followed by fixing with 2% paraformaldehyde for 10 minutes. At least six microphotographs of fluorescence fields were captured under a 20× fluorescent microscope (Keyence, BZ-X710, Osaka, Japan). For each image, the average intensity of EtBr fluorescence was measured and quantified from at least 30 random cells using ImageJ software (NIH, Bethesda, USA). […]
(§2) Anti-Cx43 hemichannel antibody (M1 antibody) blocked Cx43 hemichannel opening and inflammatory gene expression in RAW264.7 and SW982 cells. […] The activity of Cx43 hemichannels was determined using EtBr dye uptake assay. […] Next, MMP3/13, Cyclooxygenase 2 (COX2), ADAM metallopeptidase with thrombospondin type 1 motif 4 (Adamts4), and IL6 gene expression was determined with or without Cx43E2 antibody after LPS treatment of RAW264.7 cells (FIG. 18). […] In addition, MMP3/13, COX2, Adamts4/5, and Nitric Oxide Synthase 2 (NOS2) gene expression was evaluated in IL1β-treated SW982 cells (FIG. 19).

Test [2] concerns the target T2, Cx43 hemichannels in mouse macrophage RAW264.7 cells (Mus musculus, UniProt P23242).
T2 construct: endogenous in cells; host or cells: RAW264.7 (mouse macrophage), LPS-treated
Description: EtBr dye uptake assay in LPS-treated RAW264.7 cells. In kind it is cell-based. As for the experimental part: as §1, §2

In test [3] the target is T3, Connexin 43 (Cx43) hemichannel, mouse (mouse, UniProt P23242 2-382).
T3 construct: whole, on cells; also called Cx43 HCs
T3 sequence (P23242 2-382): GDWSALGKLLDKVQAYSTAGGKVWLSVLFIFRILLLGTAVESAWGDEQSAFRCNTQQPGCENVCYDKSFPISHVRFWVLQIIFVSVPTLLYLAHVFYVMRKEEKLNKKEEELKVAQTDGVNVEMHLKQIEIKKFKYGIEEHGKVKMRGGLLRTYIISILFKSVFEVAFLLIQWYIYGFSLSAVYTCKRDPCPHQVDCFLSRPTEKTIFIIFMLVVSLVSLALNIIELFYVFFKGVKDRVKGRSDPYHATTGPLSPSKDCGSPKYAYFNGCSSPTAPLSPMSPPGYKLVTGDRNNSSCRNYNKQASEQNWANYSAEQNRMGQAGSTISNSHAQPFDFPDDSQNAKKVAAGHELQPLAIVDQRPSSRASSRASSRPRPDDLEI
The experiment in a line: in vivo binding after i.p. injection; frozen knee sections stained with Alexa Fluor 594 anti-human IgG. How it is done:
M1 antibody binds to synovium and inhibits hemichannel opening in OA. Due to the dense nature of cartilage and large size of antibodies, a widely held perception is that antibodies are unable to penetrate the cartilage matrix. To determine the antibody binding pattern in the knee joint region, M1 antibody (25 mg/kg) with human IgG epitope or saline was intraperitoneally (i.p.) injected at 30 mins after DMM surgery. As shown in the diagram (FIG. 8A), mice were euthanized and perfused before isolation of hindlimbs at one or two weeks after injection. Frozen tissue sections were prepared and immuno-labeled with Alexa Fluor 594-conjugated anti-human IgG secondary antibody. The signal was detectable at both one and two weeks after antibody administration, with the antibody binding site primarily localized in the synovium region (FIG. 8B). The synovium of joints comprises macrophage-like type A cells, which are responsible for phagocytosing synovial fluid, and fibroblast-like type B cells, which produce hyaluronic acid and mucin to nourish and mechanically protect, respectively, the underlying articular cartilage (Donahue H J, et al. Nature reviews Rheumatology. 2017; 14(1):42-51). Then the sections were immuno-labeled with the macrophage marker CD68, and the M1 antibody was co-localized with CD68 in the synovium region (FIG. 9). […]

The subject of test [4] is IL1β-induced inflammatory gene expression in SW982 cells. The experiment in a line: qRT-PCR of IL1β-induced inflammatory gene expression in SW982 cells. The format is cell-based, human. The note with it: pre-incubated 30 min, 1 ng/ml IL1β for 14 hrs. As for the experimental part: Human synovial fibroblast SW982 cells were pre-incubated with or without the Cx43E2 antibody for 30 min followed by incubation with 1 ng/ml IL1β for 14 hrs. RNA extracts were prepared and subjected to qRT-PCR analysis for COX2, Adamts4/5, MMP3/13 and NOS2 mRNA expression. *P<0.05, **P<0.01.
(§3) RNA isolation and real-time PCR. Total RNA was isolated from RAW264.7 and SW982 cells using TRI Reagent (Molecular Research Center, Cincinnati, USA) according to the manufacturer's instructions. After RNA quantification by Nanodrop 2000, cDNA was synthesized from 1 μg of total RNA using the high-capacity RNA-to-cDNA kit (Thermo Fisher Scientific, Waltham, USA). […]
as §2

Test [5] has as its system LPS-induced inflammatory gene expression in RAW264.7 cells. The experiment in a line: qRT-PCR of LPS-induced inflammatory gene expression in RAW264.7 cells. The format is cell-based, mouse. The settings on record: pre-incubated 30 min, 0.1 μg/ml LPS for 4 hrs. As for the experimental part:
Mouse macrophage RAW264.7 cells were pre-incubated with or without the Cx43E2 antibody for 30 min followed by incubation with 0.1 μg/ml LPS for 4 hrs. RNA extracts were prepared and subjected to qRT-PCR analysis for COX2, Adamts4, MMP3/13 and IL6 mRNA expression. *P<0.05, **P<0.01.
as §3, §2
For orientation: In qPCR the cycle at which signal appears reflects the starting amount.

T2 sequence (P23242 whole entry): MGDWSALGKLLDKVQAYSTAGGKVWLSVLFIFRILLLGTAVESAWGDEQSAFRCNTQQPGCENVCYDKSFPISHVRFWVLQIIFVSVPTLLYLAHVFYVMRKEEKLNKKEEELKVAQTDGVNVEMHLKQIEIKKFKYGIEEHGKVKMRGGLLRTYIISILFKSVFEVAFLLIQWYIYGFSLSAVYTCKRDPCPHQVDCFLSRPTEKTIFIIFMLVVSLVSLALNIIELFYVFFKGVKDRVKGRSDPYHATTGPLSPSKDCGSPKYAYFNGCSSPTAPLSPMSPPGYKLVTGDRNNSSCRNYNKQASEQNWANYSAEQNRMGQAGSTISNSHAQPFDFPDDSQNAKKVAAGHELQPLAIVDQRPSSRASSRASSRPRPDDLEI
T1 sequence (P17302 whole entry): as the sequence (P23242 whole entry) above, with E124D, V164I, R243K, T251S, P253A, S257A, P263Q, S341N, A344S, V347L counted along it

Turning to `CC1(C)[C@@H](OC(=O)CCC(=O)O)CC[C@]2(C)[C@H]3C(=O)C=C4[C@@H]5C[C@@](C)(C(=O)O)CC[C@]5(C)CC[C@@]4(C)[C@]3(C)CC[C@@H]12` [carbenoxolone, reference compound], the “IL1β-induced increase of Cx43 hemichannel opening (EtBr dye uptake)” value in test [1] (CBX 100 μM) is reported as “abolished”. Besides, the “LPS-induced increase of Cx43 hemichannel opening (EtBr dye uptake)” value in test [2] (CBX 100 μM) is listed as “abolished”.

B1: M1 antibody (anti-Cx43 hemichannel blocking antibody) (antibody, V domains shown)
VH: EVQLQQPGAELVKPGASVKLSCKASGYTFTSYYMYWVKQRPGQGLEWIGGINPSNGGTNFNEKFKNKATLTVDKSSSTAYMQLSSLTSEDSAVYYCTREGNPYYTMNYWGQGTSVTVSS
VL: DIVMTQSPSSLSVSAGEKVTMSCKSSQSLLNSGNQKTYLAWYQQKPGQPPKLLIYGASTRESGVPDRFTGSGSGTDFTLTISSVQAEDLAVYYCQNDHSYPFTFGSGTKLEIK
notes: also called HmAb1; anti-Cx43 hemichannel antibody
With B1, the binding result in test [3] is listed as “binds”.

B2: Cx43E2 blocking antibody: Cx43 hemichannel blocking antibody used in RAW264.7 and SW982 cells; headings and legends call it anti-Cx43 hemichannel antibody (M1 antibody) (antibody, V domains shown)
VH: EVQLQQPGAELVKPGASVKLSCKASGYTFTSYYMYWVKQRPGQGLEWIGGINPSNGGTNFNEKFKNKATLTVDKSSSTAYMQLSSLTSEDSAVYYCTREGNPYYTMNYWGQGTSVTVSS
VL: DIVMTQSPSSLSVSAGEKVTMSCKSSQSLLNSGNQKTYLAWYQQKPGQPPKLLIYGASTRESGVPDRFTGSGSGTDFTLTISSVQAEDLAVYYCQNDHSYPFTFGSGTKLEIK
As to B2, the “MMP3/13, COX2, Adamts4/5 and NOS2 gene expression after IL1β treatment” value in test [4] is listed as “significantly reduced”. In addition, the “IL1β-induced increase of Cx43 hemichannel opening (EtBr dye uptake)” value in test [1] (antibody 2 μg/ml) was “abolished”. The “LPS-induced up-regulation of MMP3/13, COX2, Adamts4 and IL6 gene expression” value in test [5] was “markedly decreased”. The “LPS-induced increase of Cx43 hemichannel opening (EtBr dye uptake)” value in test [2] (antibody 2 μg/ml) is “abolished”.
